This note sets out measurements from US20080139477.

The series deals with Flag-tagged collagen type III fusion protein (Flag-helix-C-tel-C-pro) expressed from YEpFlagCOLIII1.6 kb (UniProt P02461).
Sequence of UniProt P02461 (P02461 other isoform, or with tags, fused parts or gaps): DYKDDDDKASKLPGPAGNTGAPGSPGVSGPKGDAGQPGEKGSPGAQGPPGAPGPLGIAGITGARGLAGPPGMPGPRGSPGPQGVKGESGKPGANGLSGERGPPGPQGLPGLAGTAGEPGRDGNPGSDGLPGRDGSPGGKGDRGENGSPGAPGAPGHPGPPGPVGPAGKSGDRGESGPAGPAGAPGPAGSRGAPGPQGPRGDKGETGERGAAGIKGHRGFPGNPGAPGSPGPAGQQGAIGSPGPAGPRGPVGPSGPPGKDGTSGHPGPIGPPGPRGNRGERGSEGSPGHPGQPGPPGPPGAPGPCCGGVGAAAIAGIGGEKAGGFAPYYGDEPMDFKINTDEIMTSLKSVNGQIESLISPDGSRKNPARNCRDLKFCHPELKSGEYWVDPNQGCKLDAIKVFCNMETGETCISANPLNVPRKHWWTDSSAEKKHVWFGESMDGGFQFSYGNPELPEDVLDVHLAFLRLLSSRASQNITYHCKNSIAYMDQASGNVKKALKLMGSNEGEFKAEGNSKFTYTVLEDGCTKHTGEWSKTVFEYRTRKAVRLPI

For the substance “prolyl-4-hydroxylase (P4H, α2β2) expressed from pYEUra3.2.12β#39α#5”, the “hydroxyproline by amino acid analysis of the 60 kDa band” value is on record as “Amino acid analysis revealed the presence of hydroxyproline in this material from co-transformants ... after induction with 0.2% galactose but no hydroxyproline was detected with protein from control samples”.
